B1: NP_002788.1 (parent)
chain: DGWIRVSSDNVADLHEKYSGSTP
B2: USP39 (parent)
chain: FVEKNPTIVNFPITNVDLREYLSE

Variants of: B1
Assay: protein stability index of a GFP-peptide fusion (GPS, HEK-293T) (PSI 1-6); higher = more stable
Settings: c terminus: native

Protein stability index of substitutions, site by site:
S19: H 2.56 | M 2.28 | Y 2.47 | A 2.26 | Q 2.41 | K 1.95 | I 2.49 | R 2.34 | C 2.9 | E 2.87 | D 3.5 | W 2.68 | N 3.07 | T 2.47 | F 2.82 | V 2.94 | L 2 | G 3.02 | P 2.34
T22: V 2.46 | A 3.29 | I 2.31 | S 3.1 | F 2.12 | D 2.98 | M 2 | W 2.81 | Q 2.78 | K 4.96 | P 4.85 | N 4.05 | Y 2.63 | R 3.98 | G 2.58 | C 2.36 | E 2.64 | H 3.06 | L 2.28
S21: I 1.95 | W 3.02 | R 2.16 | A 2.21 | G 3.59 | H 2.49 | D 4.54 | C 1.98 | K 3.06 | T 2.19 | M 1.87 | V 1.83 | E 4.56 | Q 3.01 | P 3.5 | N 1.94 | Y 2.26 | L 2.06 | F 2.16
P23: G 4.43 | H 4.63 | N 4.71 | C 4.56 | Y 4.27 | Q 4.78 | R 3.78 | M 3.41 | W 3.31 | V 4.02 | I 3.13 | S 5 | A 4.55 | F 4.29 | E 5.11 | T 4.51 | K 5.05 | L 3.93 | D 5.08
V11: N 2.69 | M 2.64 | R 1.87 | T 2.48 | W 2.4 | L 2.21 | P 2.73 | S 2.47 | Q 2.38 | K 1.78 | Y 2.67
K17: H 3.24 | A 3.52 | P 3.69 | V 3.18 | T 3.27 | L 3.06 | W 2.97 | M 3.19 | E 3.47 | I 3.12 | G 3.75 | C 3.04 | F 3.36 | Q 3.16 | D 3.58 | Y 3.34 | N 3.33 | S 3.41
L14: Y 2.5 | F 1.96 | W 2.62 | D 2.89 | K 2.37 | P 2.57 | R 2.41 | E 2.74 | V 2.36 | G 3.47 | C 2.92 | H 2.06 | M 2.65 | A 2.84 | T 2.86 | S 3.01 | Q 2.89 | I 2.35 | N 2.98
D13: L 2.58 | A 2.66 | R 2.04 | G 2.42 | F 2.62 | E 2.72 | V 2.75 | S 2.52 | I 2.53 | N 2.4 | Q 2.47 | K 2.71 | W 2.71 | T 2.47 | Y 2.54 | H 2.38 | P 2.3 | C 2.6 | M 2.53
Y18: P 4.33 | D 3.64 | R 3.3 | F 2.44 | T 3.66 | N 3.13 | E 3.23 | S 3.6 | A 3.39 | K 4.17 | I 3.11 | M 2.92 | H 2.68 | L 2.69 | W 2.81 | Q 3.46 | G 3.6 | C 3.09 | V 3.22
G20: N 3.92 | P 3.99 | V 3.82 | H 3.79 | E 4.64 | R 4.17 | F 3.63 | A 3.8 | M 3.63 | S 3.44 | W 2.9 | D 4.65 | Q 3.43 | T 4.17 | L 3.72 | C 2.82 | I 3.86 | K 3.93 | Y 3.29
H15: C 2.73 | K 2.77 | M 2.64 | E 2.98 | R 2.33 | T 2.77 | V 2.4 | P 3.06 | Q 2.76 | I 2.68 | S 2.47 | W 2.39 | D 2.85 | A 2.51 | Y 2.42 | L 2.66 | G 2.71 | F 2.82 | N 2.92
E16: H 2.67 | K 3.12 | Y 2.87 | A 2.5 | S 2.64 | C 2.62 | M 2.53 | W 2.65 | F 2.46 | T 2.8 | G 3.13 | V 2.92 | I 2.58 | R 2.97 | N 2.95 | P 3.32 | L 2.76 | D 2.58 | Q 2.87
A12: S 2.24 | I 2.59 | F 2.32 | H 2.85 | E 2.52 | C 2.57 | V 2.44 | P 2.45 | G 2.68 | T 2.43 | R 2.46 | L 2.88 | Q 2.25 | M 2.3 | Y 2.73 | K 2.33 | N 2.48 | W 2.46

Variants of: B2
Assay: as above
Settings: c terminus: a fixed tail appended

Protein stability index, by site and new letter:
V2: H 2.94 | P 2.96 | D 3.79 | T 3.2 | A 2.75 | K 3.26 | S 3.02 | M 3.36 | R 3.84 | L 2.43 | N 3.68 | F 2.74 | C 2.94 | E 3.88 | Q 2.81 | G 3.51 | I 2.3 | W 2.81 | Y 2.62
P6: E 2.21 | C 2.45 | A 3.96 | D 2.39 | F 2.6
K4: R 1.9 | Y 2.32 | C 1.42 | S 2.52 | L 2.45 | W 1.24 | N 2.05 | Q 2.61 | E 2.47 | P 1.61 | G 2.11 | H 2.03 | I 1.07 | M 1.54 | V 1.81 | A 1.74 | F 1.14 | D 2.85 | T 2.29
F1: L 3.95 | M 3.36 | N 4.08 | D 4.5 | K 4.34 | H 4.01 | E 4.26 | I 3.4 | A 3.59 | P 3.85 | Q 3.71 | T 3.87 | S 4.11 | C 2.87 | V 3.89 | R 3.78 | W 2.49 | G 3.26 | Y 1.99
N5: G 1.51 | R 1.94 | H 1.96 | T 2.37 | C 1.44 | P 1.67 | D 2.74 | M 2.15 | L 2.63 | Y 2.83 | Q 2.55 | A 1.35 | S 2.08 | E 1.91 | I 1.58 | K 2.74 | V 2.05
E3: C 1.52 | Y 2.21 | R 1.38 | T 1.15 | P 2.41 | A 1.49 | Q 1.58 | F 2.57 | V 2.25 | D 1.95 | G 1.66 | W 1.55 | I 1.85 | H 1.83 | L 1.27 | N 1.85 | K 1.94 | S 3.64
